The test system of assay [1] is BALB/c and C57BL/6 mice. Briefly: Induction of SLE-like disease by Ab1 immunization (proteinuria, histology, leukocyte counts). It counts as in vivo. The text has this:
Paraffin sections of tissue samples were either stained with hematoxylin and eosin, or immunostained with a peroxidase-labeled anti-mouse-IgG antibody (Jackson, Philadelphia, Pa.) and DAB (Sigma) according to the manufacturer's instructions.
Proteinuria was detected with Albustix strips (Bayer, Slough, UK). Leukocytes were counted from heparinized blood following 10-fold dilution in 1% acetic acid.

Assay [2] deals with (Fab)2 fragments of the Ab1 anti-p53 antibodies. The assay can be described thus: ELISA of sera of Ab1-immunized mice for Ab2 anti-idiotypic antibodies. It counts as in vivo. How it is done: (§1) ELISA assays were conducted in 96-well Maxisorp plates (Nunc, Roskilde, Denmark), which were coated with 10 μg test antigen per ml in PBS. After washing and blocking with 1% BSA in PBS for one hour at 37° C., diluted test sera (0.1 ml per well) was added for one hour at 37° C., followed by one hour incubation with goat anti-mouse IgG Fc specific, or IgG-isotype specific secondary antibodies conjugated to alkaline phosphatase, diluted 1:5000 (Jackson, Philadelphia, Pa.). A substrate solution containing 0.6 mg/ml of p-nitrophenylphosphate (Sigma, Rehovot, Israel) in diethanolamine-H2O, pH 9.8, was added, and the plates were read at 405 nm.
For anti-DNA ELISA, a secondary antibody conjugated to horseradish peroxidase, and as substrate 1 mg/ml ABTS in 0.2 M citric acid, 0.2 M Na2HP04, and 3% H202 (all from Sigma) was used. The test antigens used were (Fab) 2 fragments of Ab2 anti-PAb-421, which were prepared as described (Harlow et al, 1988), recombinant p53, the p53 peptide epitope of PAb-421, histones or, after pre-coating with methylated BSA, calf thymus DNA (all from Sigma). All antibody titers are shown as the O. D. produced by the test sera at a dilution of 1:100. […]
To learn whether both strains of mice responded to the Ab1 immunization by making Ab2 anti-idiotypic antibodies, the reactivity of their sera to the (Fab)2 fragment of the Ab1 anti-p53 antibodies was determined.
Background: In an ELISA, binding on a coated surface is turned into a signal by an enzyme label.

Assay [3] concerns single-stranded calf thymus DNA. The assay can be described thus: Anti-DNA ELISA of sera of Ab1-immunized mice. The format is in vivo. The note with it: sera of BALB/c mice immunized with the Ab1. How it is done: (§2) For anti-DNA ELISA, a secondary antibody conjugated to horseradish peroxidase, and as substrate 1 mg/ml ABTS in 0.2 M citric acid, 0.2 M Na2HP04, and 3% H202 (all from Sigma) was used. The test antigens used were (Fab) 2 fragments of Ab2 anti-PAb-421, which were prepared as described (Harlow et al, 1988), recombinant p53, the p53 peptide epitope of PAb-421, histones or, after pre-coating with methylated BSA, calf thymus DNA (all from Sigma). All antibody titers are shown as the O. D. produced by the test sera at a dilution of 1:100. Dots represent individual sera, bars represent the median of each group.

The subject of assay [4] is p53-responsive element oligonucleotide. Briefly: Band shift assay of sera of Ab1-immunized mice. It counts as in vivo. The note with it: sera of BALB/c mice immunized to the Ab1.
Assay [5] relates to native, histone-free DNA of Crithidia luciliae. Briefly: Crithidia luciliae assay of sera of Ab1-immunized mice. The format is in vivo. The note with it: sera of BALB/c mice immunized to the Ab1. How it is done:
Slides with Crithidia were purchased from Immco (Buffalo, N.Y.) and incubated with the test sera according to the manufacturer's protocol.
Test sera were then examined for binding to DNA using the Crithidia luciliae assay, which detects antibodies—to native, histone-free DNA exposed at the base of the Crithidia flagellum. Both BALB/c and C57BL/6 mice immunized to […] or PAb-248 were negative for anti-DNA antibodies in the Crithidia assay, as were C57BL/6 mice immunized to PAb-421. […] The finding of positive reactivity in the Crithidia assay correlates with the clinical disease seen in the BALB/c mice. The Crithidia luciliae assay is used clinically for its diagnostic specificity for lupus in humans (Aarden et al, 1975).

For assay [6], the target named is T1, recombinant p53 (Mus musculus, UniProt P02340).
T1 construct: made in house; host or cells: E. coli BL21 (DE3)
The assay can be described thus: ELISA of sera of Ab1-immunized mice for Ab3 anti-p53 antibodies. It counts as in vivo. The method, then:
(§3) E. coli BL21 (DE3) cells were transformed with the T7 expression vector containing mouse p53 DNA (Shohat-Foord et al, 1991). P53 was purified as described (Wolkowicz et al, 1995). All peptides, including the p53 peptide epitope of PAb-421 ([…]) (residues 364-383 of SEQ ID NO:1) were prepared using an automated synthesizer (Abimed AMS 422; Langenfeld, Germany) according to the manufacturer. Peptide purity was tested by analytical reverse phase HPLC and mass spectroscopic analysis.
as §1
To test whether immunization to Ab1 could induce Ab3, immunized mice were assayed for antibodies to p53. […] However, Ab1 antibodies PAb-246 and PAb-421 induced a stronger Ab3 anti-p53 response in the BALB/c strain than they did in the C57BL/6 strain.

Assay [7] addresses T2, p53 peptide epitope of PAb-421 (364-383 of SEQ ID NO:1) (Mus musculus, UniProt P02340).
T2 construct: made in house; host or cells: chemical synthesis (Abimed AMS 422)
The assay can be described thus: ELISA of sera of Ab1-immunized mice for Ab3 to the p53 peptide epitope of PAb-421. The format is in vivo. The method, then:
as §3
ELISA assays were conducted in 96-well Maxisorp plates (Nunc, Roskilde, Denmark), which were coated with 10 μg test antigen per ml in PBS. […] A substrate solution containing 0.6 mg/ml of p-nitrophenylphosphate (Sigma, Rehovot, Israel) in diethanolamine-H2O, pH 9.8, was added, and the plates were read at 405 nm.
Because the two mouse strains differed in their Ab1 response to PAb-421, it was conceivable that they also might differ in their Ab3 response to this Ab1 antibody. The specificity of the Ab3 response was analyzed by probing test sera for antibodies to the C-terminal peptide epitope of p53 that is recognized by the inducing PAb-421 (amino acids 364-383 of SEQ ID NO:1).

The test system of assay [8] is histones. The assay can be described thus: ELISA of sera of Ab1-immunized mice for anti-histone antibodies. It counts as in vivo. The note with it: mice immunized with Ab1, bled two weeks after second boost. How it is done:
as §1, §2

For assay [9], the system named is Ab2 of immunized C57BL/6 mice cross-reactive to PAb-246 and PAb-421. Briefly: Absorption of Ab2 cross-reactivity by preincubation with anti-p53 antibodies. It counts as binding. The note with it: sera of immunized C57BL/6 mice preincubated with the antibody. How it is done: FIG. 2 is a graph showing cross-reactivity of C57BL/6 mouse Ab2 to PAb-246 and PAb-421. […] The mean percent inhibition (+SD) of the reactivity to PAb-246 or PAb-421 by preincubation is shown.
The Ab2 cross-reactivity of the C57BL/6 mice seemed to be limited to PAb-246 and PAb-421. To confirm the Ab2 cross-reactivity between PAb-246 and PAb-421, tests were conducted to determine whether preincubation with either of the anti-p53 antibodies could absorb out the cross-reactivity. […] The mean percent inhibition (+SD) of the reactivity to PAb-246 or PAb-421 by preincubation is shown.

T2 sequence (P02340 364-383 limits assumed): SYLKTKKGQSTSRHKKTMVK
T1 sequence (P02340 whole entry): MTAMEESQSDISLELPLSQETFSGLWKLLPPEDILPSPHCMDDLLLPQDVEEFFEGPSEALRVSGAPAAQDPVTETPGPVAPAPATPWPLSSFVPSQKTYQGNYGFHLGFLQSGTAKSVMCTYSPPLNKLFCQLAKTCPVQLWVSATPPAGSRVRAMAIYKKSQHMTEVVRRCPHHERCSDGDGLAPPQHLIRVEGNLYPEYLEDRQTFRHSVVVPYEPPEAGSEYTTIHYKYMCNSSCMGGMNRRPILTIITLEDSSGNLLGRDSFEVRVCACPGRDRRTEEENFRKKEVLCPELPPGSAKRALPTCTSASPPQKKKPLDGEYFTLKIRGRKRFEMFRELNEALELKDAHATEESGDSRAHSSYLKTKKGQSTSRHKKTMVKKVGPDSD

B1: PAb-421: monoclonal antibody (Ab1) against the C-terminal DNA-binding domain of murine p53; VH SEQ ID NO:2, VL SEQ ID NO:3 (antibody, listed as Mus sp., V domains shown)
VH: QVKLQESGAELVRSGASVKLSCTASGFNIKDYYMHWVKQRPEQGLEWIGWIDPENGDTEYAPKFQGKATMTADTSSNTAYLQLSSLASEDTAVYYCNFYGDALDYWGQGTTVTVSS
VL: DIQLTQSPLTLSVTIGQPASISCKSSQSLLDSDGKTYLNWLLQRPGQSPKRLIYLVSKLDSGVPDRFTGSGSGTDFTLKINRVEAEDLGVYYCWQGTHSPLTFGAGTKLK
modifications: BINDING (26)..(35) Complementary Determining Region; BINDING (24)..(39) Complementary Determining Region
Turning to B1, the “immunized mice that exhibited proteinuria” value in [1] (80 BALB/c mice immunized with Ab1) is “about 95%”. In addition, the “development of lupus after Ab1 immunization” value in assay [1] (BALB/c mice) is “develop a lupus-like disease”; in assay [1] (C57BL/6 mice), “did not develop disease”. Besides, the “mice leukopenic (<4000 leukocytes per ml) and lymphopenic (<1200 lymphocyte per ml)” value in assay [1] (BALB/c mice immunized with Ab1) is recorded as “Seven out of ten”. Further, the “Ab2 anti-idiotypic response, specificity (FIG. 1)” value is “made antibodies specific to PAb-421” in [2] (BALB/c mice); “cross-reacted to both PAb-246 and PAb-421” in [2] (C57BL/6 mice). Further, the “anti-DNA reactivity to single stranded calf thymus DNA (FIG. 3)” value in [3] is “High anti-DNA reactivity”. Moreover, the “anti-DNA Ab2 to the p53-responsive element (band shift)” value in assay [4] was “did not make such anti-DNA antibodies”. Also, in assay [5], the “anti-DNA antibodies in the Crithidia assay” value was “produced anti-DNA antibodies detectable by the Crithidia assay”. For the same molecule, the “induction of Ab3 anti-p53 antibodies (FIG. 4A)” value in assay [6] (BALB/c mice) and in assay [6] (C57BL/6 mice) was “make anti-p53 antibodies” throughout. In addition, the “Ab3 antibodies to the p53 peptide epitope of PAb-421 (FIG. 5)” value in assay [7] (BALB/c mice) is listed as “made antibodies to the peptide epitope of PAb-421”; in assay [7] (C57BL/6 mice) it was “did not make antibodies to the C-terminal p53 peptide”. For the same molecule, the “mice that developed significant titers of anti-histone antibodies” value in assay [8] is “About 30%”. In addition, in assay [9], the “absorption of Ab2 cross-reactivity between PAb-246 and PAb-421 by preincubation (FIG. 2)” value is given as “absorbed out significantly”.

(Values after patent US20060030524A1, “Treatment of systemic lupus erythematosus by down-regulating the autoimmune response to autoantigens” (Yeda Research and Development Co. Ltd., priority 1998, published 2006).)
